# Test results taken from article PMC7919418 (Genes & Development, 2021).
# B1: Nxf2[541–841], recombinant (domain or fragment)
# chain: LPSEYVRAVKEVFPQLTTLDGVDLQTNPGQSLQKNFLCDTGAYELVGAFLENYLREFENDEFRHNLYKYYSENSIFTLTCNYNVVQNHQTPKILQRLSKYNRHARNLRNKDYSKASDGVFFGCTYIVEILLQLPRVTHDFHSLQTDVMHYNGKGAVIYVAGLLRDEPPSTRNGHGSKTDIGGVLLGFSRQFVVTFDEANLGLGKRARRLKIANERLHITNPSKTAIRNAFSVNFPDPSERQAEEDSLDVKDHKLLLFQEVTGLISTWVTSIVEEADWDFERALKLFIQKNADHEIPDLAFA
# B2: His6-Ctp, recombinant, coexpressed in SFiNX complexes (natural protein)
# chain: MSDRKAVIKNADMSEEMQQDAVDCATQALEKYNIEKDIAAYIKKEFDKKYNPTWHCIVGRNFGSYVTHETRHFIYFYLGQVAILLFKSG
# B3: Panx[263–541], recombinant, coexpressed in SFiNX[wild type] (domain or fragment)
# chain: ASSQNESSKERKLRDTELDYVPVRPDEHFIRPIKFSNLIERRPPQVEFNTVNLSKADKRSLAVARAELVLEQIQQKANKEEPPEFHMVDTICKLPVNESFRNQDCFENPSPICNNMNVVYKFNSTPGTRIDLSKWGLETVPEATKRLLRLLGIDVARLKELQSTVKPSQRILKLKKEQLEQGLAPTEEQETATLYKNAATQTERRTATRDAGTQVRLESKLNGAFWQNPHFDPMNLTQHQSNVMLALQEIYQTLPSATMAVKLSRALAPALAIIKGRQP
# Experiments:
# [1] = molecular target: Drosophila melanogaster Ctp (residues 1–89), untagged, coexpressed with Panx peptides (Drosophila melanogaster, UniProt Q24117 1-89); test: SEC-MALS
# [2] = molecular target: Ctp expressed in isolation with a His6-SUMO tag (for ITC) (Drosophila melanogaster, UniProt Q24117 1-89); test: ITC
# Nxt1, recombinant = Nxt1, recombinant (Drosophila melanogaster, UniProt Q9V3H8 1-133); test: SEC-MALS
# SEC-MALS = molecular target: the molecule itself; test: SEC-MALS
# [3] = molecular target: B1; test: SEC-MALS
Binder,stoichiometry N [1],Kd [2] [nM],further results
RTATRDAGTQVRLE [Panx peptide residues 467–480 (Panx2)],2 Panx peptides per Ctp homodimer,~140,
TLYKNAATQTERRTATRDAGTQVRLE [Panx peptide residues 455–480 (Panx1 + 2)],1 Panx peptide per Ctp homodimer,,
B1,,,"binding result (Nxt1, recombinant): binds"
B2,,,stoichiometry N (SEC-MALS): 2
TLYKNAATQTER [Panx peptide residues 455–466 (Panx1)],2 Panx peptides per Ctp homodimer,~75,
B3,,,binding result [3]: binds
